# Test results reported in PMC6054379.
# Columns and labels:
# [1] = target: Staphylococcus aureus protein A (Staphylococcus aureus) (UniProt P38507); test: particle-based immunoassay read by flow cytometry; protein A covalently coupled (EDC/sulfo-NHS) to 6 μm (PAH/PAA)2 polyelectrolyte microcapsules; 10 μg purified BBM.1 in 1 mL PBS pH 8.2, 2 h; detected with GαM-AF488; dose-response also in PBS pH 7.2 and complete RPMI
# [2] = target: Staphylococcus aureus protein A (Staphylococcus aureus) (UniProt P38507); test: particle-based immunoassay read by flow cytometry; protein A covalently coupled (EDC/sulfo-NHS) to 2.35 μm carboxylated PS beads; 10 μg purified BBM.1 in 1 mL PBS pH 8.2, 2 h; detected with GαM-AF488
substance,measurement,setting,value
murine monoclonal antibody BBM.1,mean fluorescence intensity (MFI),[1],33.5
same,mean fluorescence intensity (MFI),[2],12.2
